We go through one molecule from patent publication US20240383984A1 (Genentech, published 2024).

One assay concerns the target T1, 293-FcRH5-DEL (human, UniProt Q96RD9).
T1 construct: domain 9 deletion, expressed on 293 cells
T1 sequence (receptor, looked up): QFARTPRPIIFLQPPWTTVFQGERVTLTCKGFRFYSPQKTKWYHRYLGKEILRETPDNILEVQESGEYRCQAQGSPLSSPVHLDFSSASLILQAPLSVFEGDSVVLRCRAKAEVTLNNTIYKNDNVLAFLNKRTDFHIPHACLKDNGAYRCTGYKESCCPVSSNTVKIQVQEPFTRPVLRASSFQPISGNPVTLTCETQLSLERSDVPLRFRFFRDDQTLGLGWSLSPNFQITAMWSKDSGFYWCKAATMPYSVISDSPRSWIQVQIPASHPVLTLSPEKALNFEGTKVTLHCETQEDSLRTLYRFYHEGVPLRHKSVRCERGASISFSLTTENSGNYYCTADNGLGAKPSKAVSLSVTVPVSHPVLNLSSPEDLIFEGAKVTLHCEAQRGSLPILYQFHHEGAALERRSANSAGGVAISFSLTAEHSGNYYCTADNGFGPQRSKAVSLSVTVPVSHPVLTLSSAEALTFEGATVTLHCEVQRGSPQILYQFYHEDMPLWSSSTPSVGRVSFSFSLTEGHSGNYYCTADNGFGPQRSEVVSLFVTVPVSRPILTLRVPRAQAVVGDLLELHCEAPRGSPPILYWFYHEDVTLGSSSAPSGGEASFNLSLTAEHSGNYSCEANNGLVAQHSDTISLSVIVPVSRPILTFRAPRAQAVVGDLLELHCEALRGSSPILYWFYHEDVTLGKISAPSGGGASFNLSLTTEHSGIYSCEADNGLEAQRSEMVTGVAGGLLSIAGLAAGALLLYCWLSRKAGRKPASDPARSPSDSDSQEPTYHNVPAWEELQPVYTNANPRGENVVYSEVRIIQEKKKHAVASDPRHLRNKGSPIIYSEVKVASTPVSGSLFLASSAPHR
The experiment in a line: flow cytometry on 293 cells with domain 9-deleted FcRH5, PE-labelled secondary.

Assay [1] concerns the target T2, cynomolgus FcRH5 protein fragment (soluble) (cynomolgus monkey).
T2 construct: whole entry named; also called Cyno FcRH5 (BIACORE analyte)
T2 chain: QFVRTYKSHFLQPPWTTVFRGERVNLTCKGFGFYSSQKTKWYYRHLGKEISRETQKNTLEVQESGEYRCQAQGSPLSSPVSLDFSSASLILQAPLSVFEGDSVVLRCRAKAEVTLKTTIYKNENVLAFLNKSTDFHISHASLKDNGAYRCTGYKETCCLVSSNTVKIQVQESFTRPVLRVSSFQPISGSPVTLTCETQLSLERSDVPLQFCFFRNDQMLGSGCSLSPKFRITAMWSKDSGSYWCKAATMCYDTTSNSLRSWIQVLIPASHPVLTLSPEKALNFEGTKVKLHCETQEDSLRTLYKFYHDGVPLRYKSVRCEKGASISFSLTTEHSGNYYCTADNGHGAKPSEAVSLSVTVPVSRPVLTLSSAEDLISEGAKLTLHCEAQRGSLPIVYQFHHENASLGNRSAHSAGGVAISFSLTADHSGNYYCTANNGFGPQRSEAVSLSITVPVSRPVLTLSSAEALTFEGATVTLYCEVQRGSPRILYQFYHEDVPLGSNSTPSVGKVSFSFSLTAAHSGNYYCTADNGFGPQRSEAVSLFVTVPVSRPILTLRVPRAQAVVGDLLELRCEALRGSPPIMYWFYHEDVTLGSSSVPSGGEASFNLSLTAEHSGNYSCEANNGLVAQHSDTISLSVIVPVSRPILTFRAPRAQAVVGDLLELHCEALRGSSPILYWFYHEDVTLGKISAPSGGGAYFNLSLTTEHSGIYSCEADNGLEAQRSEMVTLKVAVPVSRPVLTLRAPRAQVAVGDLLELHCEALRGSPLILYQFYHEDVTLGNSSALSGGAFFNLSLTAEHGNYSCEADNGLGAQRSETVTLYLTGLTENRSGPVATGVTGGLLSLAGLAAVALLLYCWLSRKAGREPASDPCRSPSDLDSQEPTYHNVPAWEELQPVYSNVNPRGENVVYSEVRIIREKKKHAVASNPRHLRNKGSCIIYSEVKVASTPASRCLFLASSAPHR
As to the kind of experiment: BIACORE, hIgG capture, 1:1 model, monovalent. The protocol:
Briefly, a human IgG capture surface was generated on a Series S CM5 chip using amine coupling and the human IgG capture kit (GE Life Sciences, Piscataway, NJ). Test antibodies were then captured on flow cells 2, 3, or 4, with flow cell 1 used as a reference. An FcRH5 protein fragment was used as the analyte, with a flow rate of […]. Between injections the capture surface was regenerated by a 30-second injection of 3M magnesium chloride or 10 mM glycine, pH 1.5. Interactions were assessed at 25° C. in 10 mM HEPES pH7.4, 150 mM NaCl, and 0.05% Tween 20 (HBSP). Reference data from the reference flow cell and from injection of buffer alone were subtracted prior to kinetic analysis. Kinetic information was calculated by fitting data to a 1:1 binding model. Reference subtraction and data fitting were performed using BIAevaluation software (GE Life Sciences, Piscataway, NJ).
Kinetic characterization experiments were carried out (see Table 8). In these experiments, binding of soluble FcRH5 protein fragment to purified antibodies in human TDB antibody format was analyzed at six different non-zero concentrations (a 1:3 dilution series, one concentration injected twice as a replicate). Flow rate was set at 40 μl/min and association and dissociation monitored for 600 s.

B1: 1G7.v85/38E4.v1 TDB (bispecific antibody, V domains shown)
VH 1: EVQLVESGPGLVKPSETLSLTCTVSGFSLTRFGVHWVRQPPGKGLEWLGVIWRGGSTDYNAAFVSRLTISKDNSKNQVSLKLSSVTAADTAVYYCSNHYYGSSDYALDNWGQGTLVTVSS
VL 1: DIQMTQSPSSLSASVGDRVTITCKASQDVRNLVVWFQQKPGKAPKLLIYSGSYRYSGVPSRFSGSGSGTDFTLTISSLQPEDFATYYCQQHYSPPYTFGQGTKVEIK
VH 2: EVQLVQSGAEVKKPGASVKVSCKASGFTFTSYYIHWVRQAPGQGLEWIGWIYPENDNTKYNEKFKDRVTITADTSTSTAYLELSSLRSEDTAVYYCARDGYSRYYFDYWGQGTLVTVSS
VL 2: DIVMTQSPDSLAVSLGERATINCKSSQSLLNSRTRKNYLAWYQQKPGQSPKLLIYWTSTRKSGVPDRFSGSGSGTDFTLTISSLQAEDVAVYYCKQSFILRTFGQGTKVEIK
notes: knob-into-hole TDB; also called 1G7.v85 TDB; 1G7.v85 (TDB format)
Usually Kd stands for the constant that tells how readily two partners part at equilibrium. Take B1: the binding result with 293-FcRH5-DEL is “no binding”. For the same molecule, the Kd in assay [1] is 6.76 nM.
